Measured values taken from paper PMC12100659.

Key:
[1] = biological target: α-synuclein (human) (UniProt P37840)
[2] = biological target: α-synuclein (human) (UniProt P37840); remark: listed apart in the source
[3] = biological target: α-synuclein (human) (UniProt P37840); remark: listed apart in the source
[4] = biological target: α-synuclein (human) (UniProt P37840); remark: listed apart in the source

apparent solubility of α-syn (free monomer by 1D 1H NMR at about 300 h) with 250 nM JB6, pH 5.5 [1]: 0.47 μM
half-time of loss of free α-syn monomer by 1D 1H NMR, 20 μM α-syn with 250 nM JB6 (4.9 h without JB6), pH 5.5, 37 °C [2]: 35 h
apparent solubility of α-syn (free monomer in supernatant by HPLC-MS) with 0.12 and 2 μM JB6, pH 4.5 [3]: 2.3 μM
apparent solubility of α-syn (free monomer in supernatant by HPLC-MS) with 7.8 to 62.5 nM JB6, pH 5.5 (0.8 μM for α-syn alone; 125 nM JB6 not at equilibrium, 16 μM) [4]: 7.7 μM
Substance: DNAJB6b (from UniProt O75190-2 1-241) (natural protein)
